Here are results for one molecule from patent US20250297215A1, “METHOD FOR PRODUCING MILK LIKE PRODUCTS” (SOCIETE DES PRODUITS NESTLE S.A., priority 2021, published 2025).

In assay [1] the test system is iPSCs derived mammary gland organoids. Kind of assay: Flow cytometry of progenitor markers, BMP4 and RA single or combined, 42 days and 31 days protocols. In kind it is cell-based, human. Particulars: 20 ng/ml BMP4, 1 μM RA, single or combination, compared to the control condition. The source says:
In order to generate milk bioactives that closely resemble those found in human breast milk, different methods using bone morphogenetic protein 4 (BMP4) and retinoic acid (RA) in 42 days and 31 days as a shortened time-course protocol were established in a 3D-platform using iPSCs derived mammary gland organoids as a biomimetic model of the human mammary gland (FIG. 9).

The next assay relates to iPSC cells. Kind of assay: RNA expression of ESRRA, KRT14 and MUC1 at end-stage of 3D-mammary gland differentiation. The format is cell-based, human. Particulars: day 30, 33 and 35, compared to the control sample. The protocol:
The effect of BMP4 at the end-stage of 3D-mammary gland differentiation of iPSC cells was assessed using estrogen related receptor alpha (ESRRA), Keratin 14 (KRT14) and MUC1 for their expression profiles.

Assay [2] relates to human-induced pluripotent stem cell (hiPSC) line 603. The experiment in a line: Flow cytometry quantification of mammary gland progenitor markers after BMP4 treatment, 3D-organoid setting. In kind it is cell-based. To be noted: 20 ng/ml BMP4, day 0 to day 3, flow cytometry. The procedure: (§1) Methods: The human-induced pluripotent stem cell (hiPSC) line 603 was purchased from Fujifilm Cellular Dynamics, Inc (FCDI) and used for the 3D-differentiaion of mammary gland progenitors. Briefly, 5.5 million dissociated iPSCs were plated in the 6 well-plates (ultra-low attachment) containing 4.5 mL aggregation media using a planar shaker platform (set at 95 RPM). BMP4 (314-BP-050, Bio-Techne AG) at different concentrations was added to the culture media between day 0 and day 3.
On the technique in general: Flow cytometry measures light scatter and fluorescence of single cells or particles in a stream.

The subject of assay [3] is iPS-derived mammary-gland cells. Kind of assay: LC-MS/MS targeted proteomic analysis of osteopontin protein secretion. In kind it is cell-based, human. To be noted: also detected with control differentiation method. From the text: Human osteopontin peptides—GDSVVYGLR and -YPDAVATWLNPDPSQK were specifically detected in the cell culture supernatant by LC-MS/MS (FIG. 10).
Osteopontin protein secretion was detected in the media of cultures of iPS-derived mammary-gland cells using control differentiation method, or with bone morphogenetic protein 4 (BMP4), retinoic acid (RA) and in the combination of the two factors.

In assay [4] the test system is human-induced pluripotent stem cell (hiPSC) line 603. Kind of assay: Nanostring RNA expression of lineage markers after BMP4 treatment, 3D-organoid setting. The format is cell-based. The protocol: as §1
Results: iPSC cells were tested with different concentrations of BMP4 to induce non-neural ectodermal differentiation (FIG. 6a, b). […] Expression of human TFAP2A and TFAP2C (AP2 Gamma) as predominant non-neural ectodermal markers were increased at day 10 of differentiation using Nanostring analysis compared to the control sample (FIG. 6g-h). Moreover, expression levels of human specific neural ectoderm markers, such as paired box gene 6 (PAX6), orthodenticle homeobox 2 (OTX2) and SRY-box transcription factor 11 (SOX11) were decreased during differentiation (FIG. 6i-k).

B1: BMP4: bone morphogenetic protein 4 (314-BP-050, Bio-Techne AG), added to the culture media (protein, UniProt P12644 293-408, looked up)
Bone morphogenetic protein 4: SPKHHSQRARKKNKNCRRHSLYVDFSDVGWNDWIVAPPGYQAFYCHGDCPFPLADHLNSTNHAIVQTLVNSVNSSIPKACCVPTELSAISMLYLDEYDKVVLKNYQEMVVEGCGCR
For B1, in assay [1], the “expression of mammary gland progenitor markers EpCAM, CD49f, MUC1 and GATA3 (induced or maintained)” value was “can induce the expression”. Also, the “RNA expression levels of ESRRA, KRT14 and MUC1” value with iPSC cells is “increased”. For the same molecule, the “expression of mammary gland progenitor markers EpCAM (CD326), CD49f, MUC1 (CD227) and GATA3” value in assay [2] is on record as “significantly induced”. Besides, in assay [3], the “osteopontin protein secretion in culture media” value is listed as “detected”. In assay [4] (RNA expression level), the “expression of luminal marker KRT18 and osteopontin (OPN)” value is reported as “can induce the expression”. The “expression of human TFAP2A and TFAP2C (non-neural ectodermal markers)” value in assay [4] (day 10 of differentiation, compared to the control sample) is “increased”. Besides, the “expression levels of neural ectoderm markers PAX6, OTX2 and SOX11” value in assay [4] (during differentiation) was “decreased”.
